Data reported in publication PMC11086168, “Combining the Benefits of Biotin–Streptavidin Aptamer Immobilization with the Versatility of Ni-NTA Regeneration Strategies for SPR”.

Key:
[1] = target: T1, 6xHis-streptavidin (His-SA) (UniProt P22629 25-183); experiment: EMSA; binding through 5' biotin; LSPR on Ni-NTA chip with His-SA capture; sample buffer PBS-T (1X PBS, 0.05% Tween 20); immobilization in PBS-T or PBS-I (1X PBS, 300 mM NaCl total, pH 8.0); 20; details: protein: commercial; tags: 6xHis; chain copies: 4; label: 5' biotin
T1 sequence (P22629 25-183): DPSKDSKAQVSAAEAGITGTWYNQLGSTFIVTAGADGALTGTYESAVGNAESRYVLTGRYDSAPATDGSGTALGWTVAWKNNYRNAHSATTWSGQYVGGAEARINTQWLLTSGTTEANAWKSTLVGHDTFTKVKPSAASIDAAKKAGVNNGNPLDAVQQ

[2] = target: T2, thrombin (human plasma, UniProt P00734;P00734 328-363;364-622); experiment: SPR (LSPR); Experiment 8; reused surface of Experiment 7, no new immobilization; printed as KA from Hill fit; BSA present; LSPR on Ni-NTA chip with His-SA capture; sample buffer PBS-T (1X PBS, 0.05% Tween 20); immobilization in PBS-T or PBS-I (1X PBS, 300 mM NaCl total, pH 8.0); 20
[3] = target: T2, thrombin; experiment: SPR (LSPR); Experiment 7; surface immobilized in PBS-I; printed as KA from Hill fit; BSA present; LSPR on Ni-NTA chip with His-SA capture; sample buffer PBS-T (1X PBS, 0.05% Tween 20); immobilization in PBS-T or PBS-I (1X PBS, 300 mM NaCl total, pH 8.0); 20
[4] = target: T2, thrombin; experiment: SPR (LSPR); Experiment 1; PBS-T; printed as KA from Hill fit (half-saturation, in nM); aptamer immobilized on His-SA/Ni-NTA; BSA present; LSPR on Ni-NTA chip with His-SA capture; sample buffer PBS-T (1X PBS, 0.05% Tween 20); immobilization in PBS-T or PBS-I (1X PBS, 300 mM NaCl total, pH 8.0); 20
[5] = target: T1, 6xHis-streptavidin (His-SA); experiment: EMSA; no biotin; 1 µM 29mer; LSPR on Ni-NTA chip with His-SA capture; sample buffer PBS-T (1X PBS, 0.05% Tween 20); immobilization in PBS-T or PBS-I (1X PBS, 300 mM NaCl total, pH 8.0); 20; details: protein: commercial; tags: 6xHis; chain copies: 4

For AGTCCGTGGTAGGGCAGGTTGGGGTGACT (structured_DNA, 5' biotin (5Biosg)) [B-29mer (biotinylated thrombin-binding aptamer)], the binding result [1] was “binds”, the Kd [2] was 10.3 nM and the Kd [3] was 18.6 nM. It also gave a Kd [4] of 31.2 nM.

AGTCCGTGGTAGGGCAGGTTGGGGTGACT (structured_DNA) [unlabeled 29mer]: no binding [5].
